Data published in US20250019427A1 (BYOMASS, published 2025).

Experiments:
GDF15 = target: T1, GDF15 (Homo sapiens (Human), UniProt Q99988 30-308); assay: cell-based or functional assay
T1 sequence: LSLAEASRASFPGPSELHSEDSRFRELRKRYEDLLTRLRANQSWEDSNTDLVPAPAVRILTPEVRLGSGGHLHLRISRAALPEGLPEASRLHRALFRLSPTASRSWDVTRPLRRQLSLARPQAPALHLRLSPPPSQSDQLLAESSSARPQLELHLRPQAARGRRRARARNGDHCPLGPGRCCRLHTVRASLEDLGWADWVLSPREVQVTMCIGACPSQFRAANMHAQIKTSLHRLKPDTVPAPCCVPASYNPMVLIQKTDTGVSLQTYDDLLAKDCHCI

GDNF = target: T2, GDNF (UniProt P39905 78-211); assay: Octet BLI, IgG on tip, avid
T2 sequence (looked up): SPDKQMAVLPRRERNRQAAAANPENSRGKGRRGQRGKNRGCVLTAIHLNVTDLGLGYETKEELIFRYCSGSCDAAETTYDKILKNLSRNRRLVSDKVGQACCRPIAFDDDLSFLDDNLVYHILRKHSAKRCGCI

GDF8 = GDF8 (UniProt O14793 267-375); assay: Octet BLI, IgG on tip, avid
GDF11 = target: T3, GDF11 (UniProt O95390 299-407); assay: Octet BLI, IgG on tip, avid
T3 construct: Also the GDF-11 ligand of the ActRIIB/SMAD reporter assay

Human Activin A Fc = target: T4, Human Activin A Fc (human, UniProt P08476 311-426); assay: Octet BLI, IgG on tip, avid
T4 sequence (looked up): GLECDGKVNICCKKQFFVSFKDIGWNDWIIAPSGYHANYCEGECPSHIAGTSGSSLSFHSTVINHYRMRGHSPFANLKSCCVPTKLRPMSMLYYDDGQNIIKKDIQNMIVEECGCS

Human Activin B = target: T5, Human Activin B (human, UniProt P09529 293-407); assay: Octet BLI, IgG on tip, avid
T5 construct: Also used for the Activin B ligand of the ActRIIB/SMAD reporter assay, where the species is not restated
T5 sequence (looked up): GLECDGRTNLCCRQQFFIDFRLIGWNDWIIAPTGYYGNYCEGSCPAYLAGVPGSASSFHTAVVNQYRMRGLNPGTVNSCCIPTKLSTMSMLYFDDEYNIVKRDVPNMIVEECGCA

GDF10 = target: T6, GDF10 (UniProt P55107 369-478); assay: Octet BLI, IgG on tip, avid; P.F. = binder with poor fit
T6 sequence (looked up): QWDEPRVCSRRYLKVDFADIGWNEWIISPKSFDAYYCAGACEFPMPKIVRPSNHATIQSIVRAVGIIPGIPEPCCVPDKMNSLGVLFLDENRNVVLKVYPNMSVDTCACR

Human BMP9 = target: T7, Human BMP9 (human, UniProt Q9UK05 320-429); assay: as above
T7 sequence (looked up): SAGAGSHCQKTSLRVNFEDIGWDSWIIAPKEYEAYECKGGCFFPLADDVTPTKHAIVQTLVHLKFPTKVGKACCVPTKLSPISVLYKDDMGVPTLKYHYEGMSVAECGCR

Human BMP10 = target: T8, Human BMP10 (human, UniProt O95393 317-424); assay: as above
T8 sequence (looked up): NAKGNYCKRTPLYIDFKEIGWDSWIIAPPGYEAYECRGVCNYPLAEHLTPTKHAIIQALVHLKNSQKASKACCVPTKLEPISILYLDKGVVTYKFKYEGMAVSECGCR

T3 sequence (O95390 299-407 limits assumed): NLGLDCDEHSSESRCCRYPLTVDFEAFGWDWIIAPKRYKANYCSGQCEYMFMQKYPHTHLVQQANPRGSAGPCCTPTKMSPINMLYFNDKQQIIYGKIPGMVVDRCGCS

B1: Clone A IgG (antibody, V domains shown)
VH: QVQLQESGPGLVKPSQTLSLTCTVSGGSITSGGSYWSWIRQHPGKGLEWIGAIVYSGSTYYNPSLKSRVTISVDTSKNQFSLKLSSVTAADTAVYYCARGVEYQHFDYWGQGTLVTVSS
VL: not shown
notes: IgG format
GDF15 - GFRAL RET pERK IC50 (pM) (GDF15): 102 pM | GDF15 - GFRAL-RET Luciferase IC50 (pM) (GDF15): 75 pM | binding result (GDNF): no binding (tested: 100 nM) | binding result (GDF8): no binding (tested: 100 nM) | binding result (GDF11): no binding (tested: 100 nM) | Kd (Human Activin A Fc): 7.34 nM | binding result (Human Activin B): no binding (tested: 100 nM) | binding result (GDF10): binds | binding result (Human BMP9): binds | binding result (Human BMP10): binds
